We go through 1 substance from paper PMC9332396.

This assay has as its target His6-NbSWP12 recombinant protein (spore wall protein NbSWP12 of Nosema bombycis) (Nosema bombycis). In words: non-reducing SDS-PAGE with Western blot; purified His6-NbSWP12 in non-reducing loading buffer (no SDS, no β-mercaptoethanol, not heated), 12% gel, blot with NbSWP12 antiserum.

Consider “His6-NbSWP12 recombinant protein (spore wall protein NbSWP12 of Nosema bombycis) (natural protein)”, for which the stoichiometry N is 2.

As a reminder, the stoichiometry N is the number of molecules, sites or subunits per partner or assembly.
